Assay [1] deals with T1, β2AR (Homo sapiens, UniProt P07550).
T1 construct: Flag (N); expressed in transfected cells
The experiment in a line: BRET titration assay of βarrestin2 construct recruitment to β2AR-Rluc. It counts as cell-based. The conditions noted are these: HEK-293T cells; β2AR-Rluc with YFP acceptor constructs; isoproterenol 1 μM, 5 min; compared among βarrestin2 constructs. From the text:
BRET assays. […] Titration assays were first completed, which allowed determination of the specificity of association among different interaction partners. See Nagi and Shenoy. 2019, supra; Gales et al. 2005. Nature methods 2:177-184; Nagi et al. 2015. Cellular and molecular life sciences: CMLS 72:3543-3557; Audet and Pineyro. 2011. Methods in molecular biology 756:149-163; and Rebois et al. 2006. Journal of cell science 119:2807-2818. To achieve this, a fixed amount of the donor-tagged (Renilla luciferase, Rluc) construct was co-transfected with increasing amounts of the corresponding interaction partner bearing the acceptor (YFP). […] BRET readings were acquired using Synergy Neo2 plate reader and obtained 5 min after manual addition of Rluc substrate, coelenterazine h (Promega) to a final concentration of 5 μM.
The BRET signal generated was determined by calculating the ratio of light emitted by YFP (520-550 nm) over the light emitted by Rluc (440-480 nm). These values were then corrected by subtracting the background signal (detected when the Rluc-tagged construct was expressed without acceptor) from the BRET signal detected in cells co-expressing both donor and acceptor constructs. Agonist-induced BRET values were calculated by subtracting net BRET values of non-stimulated conditions from net BRET values corresponding to the stimulated conditions. […]
A general note: Bioluminescence resonance energy transfer reports proximity on the nanometre scale.

The target of assay [2] is T2, D2 dopamine receptor (D2R) (Homo sapiens, UniProt P14416).
T2 construct: expressed in transfected cells
T2 sequence (P14416 whole entry): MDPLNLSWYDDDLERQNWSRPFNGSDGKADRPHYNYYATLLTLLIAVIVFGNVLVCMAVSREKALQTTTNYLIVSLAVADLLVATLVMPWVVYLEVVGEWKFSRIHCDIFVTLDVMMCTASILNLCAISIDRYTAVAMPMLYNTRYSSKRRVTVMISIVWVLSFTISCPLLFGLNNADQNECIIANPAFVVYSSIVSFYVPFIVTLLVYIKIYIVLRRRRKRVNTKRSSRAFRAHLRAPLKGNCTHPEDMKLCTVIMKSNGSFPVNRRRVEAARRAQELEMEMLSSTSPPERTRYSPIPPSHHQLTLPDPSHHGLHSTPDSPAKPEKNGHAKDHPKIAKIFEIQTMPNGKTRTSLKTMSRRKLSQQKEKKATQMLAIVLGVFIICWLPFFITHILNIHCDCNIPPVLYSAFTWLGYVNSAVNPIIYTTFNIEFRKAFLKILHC
The experiment in a line: BRET dose-response assay of βarrestin2 construct recruitment to D2R-RlucII. It counts as cell-based. The conditions noted are these: D2R-RlucII with YFP constructs; dopamine 15 min; compared with YFP-βarrestin2. The protocol:
HEK-293 cells were transiently transfected with D2R-RlucII along with YFP-βarr2-WT, YFP-βarr2-SUMO1 or YFP-βarr2-Ub and incubated with the indicated concentrations of dopamine for 15 min. BRET signals were measured as described in Example 1 herein, and changes following agonist treatment are expressed as a percentage of the BRET signal observed in unstimulated cells (top panel). […] The histogram (bottom panel) represents Bmax values of agonist induced BRET as means±SEM of 4 independent experiments performed in duplicates. Significance of changes in energy transfer was established by one-way ANOVA comparing signals measured for the recruitment of βarr2 fusion proteins to D2R-RlucII *p<0.01; **p<0.001.
BRET assays. […] BRET readings were acquired using Synergy Neo2 plate reader and obtained 5 min after manual addition of Rluc substrate, coelenterazine h (Promega) to a final concentration of 5 μM.
The BRET signal generated was determined by calculating the ratio of light emitted by YFP (520-550 nm) over the light emitted by Rluc (440-480 nm). These values were then corrected by subtracting the background signal (detected when the Rluc-tagged construct was expressed without acceptor) from the BRET signal detected in cells co-expressing both donor and acceptor constructs. […]

Another assay concerns the target T3, V2R (Homo sapiens, UniProt P30518).
T3 construct: HA (N); expressed in transfected cells
The experiment in a line: Co-immunoprecipitation of βarrestin2 constructs with HA-V2R. It counts as binding. To be noted: HEK-293 cells stably expressing HA-V2R; AVP.

In assay [3] the target is T1, β2AR. Nature of the assay: Confocal trafficking and colocalization with β2AR. It counts as cell-based. The conditions noted are these: HEK-293 cells with stable β2AR expression; agonist up to 20 minutes. The protocol: (§1) Immunostaining and confocal microscopy. […] Twenty-four hours post-transfection, cells were serum-starved for 4 h, and either left untreated or treated with respective agonists for the indicated times in the Figure descriptions. After stimulation, cells were fixed with 5% formaldehyde diluted in phosphate-buffered saline (PBS), permeabilized with 0.1% Triton in PBS containing 2% bovine serum albumin for 20 min and incubated at room temperature with appropriate primary antibody. The next day, cells were washed three times with PBS and incubated with Alexa594 conjugated secondary antibody for 1 h, followed by repeated washes using PBS. Confocal images were acquired using Zeiss LSM510 laser-scanning microscope using multitrack sequential with excitation (488 and 568 nm) and emission (BP 505-550 nm and LP 585 nm) filter sets. Images (1024×1024 pixels) were collected using either a 63× or 100× oil immersion lens. Images were processed for Figure presentation using Adobe Photoshop software, and any increase or decrease of brightness/contrast was applied to the entire image. The nuclear rim localization of YFP-βarrestin2-SUMO1 is readily visualized in cells with low to moderate expression of YFP-protein. In cells with high expression, this localization is present, and can be discerned by enlarging sections of the nuclear rim.
For βarrestin2-SUMO1, plasma membrane translocation was detected upon β2AR agonist activation, and, intriguingly, βarrestin2-SUMO1 was detected in endocytic vesicles. […] Confocal images were taken of cells stably expressing the β2AR and transiently expressing YFP-SUMO1 (data not shown). In both quiescent and agonist-treated cells, the SUMO1 protein remained in the nucleus. […] See Shenoy et al. 2007, supra; Shenoy and Lefkowitz. 2005. J Biol Chem 280:15315-15324; and Shenoy and Lefkowitz. 2003. J Biol Chem 278:14498-14506. Therefore, the endosomal trafficking was compared for βarrestin2-ubiquitin (βarrestin2-Ub) fusion protein and internalized β2ARs. […]

The next assay addresses T4, D2R (Homo sapiens, UniProt P14416).
T4 construct: HA (N); expressed in transfected cells
Nature of the assay: Confocal trafficking and colocalization with D2R. It counts as cell-based. To be noted: HEK-293 cells stably expressing D2R. The protocol: as §1, with “rim. […]” for “rim.”

The source of these data is patent publication US20230227514A1, “BETA-ARRESTIN COMPOSITIONS AND ASSOCIATED METHODS” (Duke University, priority 2020, published 2023).

T4 sequence (P14416 whole entry): as above
Description for V2R: Twenty-four hours post-transfection, cells were starved in PBS containing 10 mM HEPES (pH 7.4) for 1 h and stimulated with vehicle or agonist (isoproterenol, 1 μM; or AVP 1 μM, or Dopamine 1 μM) at 37° C. for desired times. After stimulations, β2AR stable cells were treated with the crosslinker DSP to a final concentration of 480 nM, and plates were rocked for 20 min at room temperature. Reaction was quenched by adding 25 μl of 1M Tris-Cl pH 8.5 per 1 mL volume of buffer in the dish and rocked for additional 5 min at room temperature.
Harvested cells were washed with ice-cold PBS (pH 7.4) and solubilized in an ice-cold lysis buffer (50 mM HEPES (pH 7.5), 2 mM EDTA, 250 mM NaCl, 10% (v/v) glycerol, and 0.5% (v/v) IGEPAL CA-630) that was supplemented with phosphatase and protease inhibitors (1 mM sodium orthovanadate, 1 mM sodium fluoride, 1 mM phenylmethylsulfonyl fluoride, 5 μg/ml leupeptin, 5 μg/ml aprotinin, 1 μg/ml pepstatin A, and 100 μM benzamidine). […] Cell lysate protein concentrations were determined by Bradford protein assay and equivalent μg of proteins were immunoprecipitated using anti-FLAG M2 antibody resin (for FIG. 2) or Anti-HA magnetic beads from Thermo Pierce (for FIG. 5, FIG. 7, and FIG. 8). […] HA-D2R or HA-V2R were detected using an anti-HA IgG (Cell Signaling Technologies). […]

Consider “βarrestin2-SUMO1: rat βarrestin2 polypeptide fused to human SUMO1 (SEQ ID NO:1); used YFP- or Flag-tagged”, for which the “agonist-induced net BRET change for interaction with β2AR” value with β2AR [1] is given as “highest change in the net BRET value”. For the same substance, in assay [2], the “agonist-mediated increase in energy transfer (net BRET) with D2R” value is given as “greater”. Also, the “binding with agonist activated V2Rs by co-immunoprecipitation” value with V2R is given as “equivalent binding”. In addition, the “colocalization / complexes with β2AR after agonist activation (confocal)” value in the assay with β2AR [3] was “persisted with longer agonist activation”. Also, the “stability of association with activated D2R (confocal)” value with D2R was “associate stably”.
